Test results as given in US12723078 (University of Texas, dated 2026).

Molecular target: T1, recombinant human LILRB1 protein (human, UniProt Q8NHL6 24-461)
T1 construct: ELISA and Octet methods say only 'recombinant LILRB1'; also called recombinant LILRB1; LILRB1 recombinant proteins
Experiment: ELISA
Protocol: ELISA. LILRB1 recombinant proteins (50 ng/well, 100 μL per well) were coated on Corning 96-well ELISA plates at 37° C. for 4 hrs. Plates were blocked for 2 hrs at 37° C. with 5% non-fat milk. After washing with PBST, 100 μL of serial diluted anti-LILRB1 antibodies were added and incubated for 60 min at 37° C. […] Plates were washed again with PBST for another 5 times, then the immunoreactions were developed with TMB substrates (Sigma, Cat #T0440) and stopped by the addition of 2 M H_2SO_4 before the plate was read at 450 nm.

T1 sequence (Q8NHL6 24-461 limits assumed): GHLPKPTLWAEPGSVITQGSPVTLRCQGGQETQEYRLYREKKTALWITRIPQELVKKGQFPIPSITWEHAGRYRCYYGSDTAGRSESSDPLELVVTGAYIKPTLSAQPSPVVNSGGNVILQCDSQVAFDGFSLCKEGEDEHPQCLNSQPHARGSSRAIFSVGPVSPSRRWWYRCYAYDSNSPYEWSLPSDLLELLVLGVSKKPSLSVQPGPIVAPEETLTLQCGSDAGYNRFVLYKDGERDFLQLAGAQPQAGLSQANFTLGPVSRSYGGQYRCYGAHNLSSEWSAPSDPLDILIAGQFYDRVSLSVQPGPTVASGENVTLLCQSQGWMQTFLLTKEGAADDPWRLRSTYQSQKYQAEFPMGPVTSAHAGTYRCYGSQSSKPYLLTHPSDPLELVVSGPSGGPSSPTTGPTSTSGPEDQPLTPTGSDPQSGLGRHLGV

EC50 (read off the curve): ~0.04 µg/mL
B1: Hu B1-176-LALAPG (antibody, V domains shown)
VH: EVQLVESGGGLVQPGGSLRLSCAASGFSFSSSYCMCWVRQAPGKGLELVSCIYTDSSGATYYASWAKGRFTISRHNSKNTLYLQMNSLRAEDTAVYYCARGWDYEDPGYTDTTYFSLWGRGTLVTVSS
VL: DIQLTQSPSFLSASVGDRVTITCQASQTIYTNLAWYQQKPGKAPKLLIYAASTLASGVPSRFSGSGSGTEFTLTISSLQPEDFATYYCQSYYGSSTTGNGFGGGTKVEIK
notes: Human IgG1 with L234A, L235A and P329G
